These results are taken from the supplement of paper PMC10567573.

The labels stand for the following.
B1: LARP4 (parent)
chain: WTVANMEEIKKLTTDPDLILEVLR
B2: APBB1IP (parent)
chain: PPEPLSQVSMWDQRWQDHQPLLPI
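Further: lentivirally expressed fusions sorted by FACS into six bins by GFP to DsRed ratio, PSI derived from sequencing read proportions per bin multiplied by bin number.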

In the first series the parent is B1. The series can be described thus: protein stability index of a GFP-peptide fusion (GPS, HEK-293T) (PSI 1-6); higher = more stable. Conditions: c terminus: a fixed tail appended.
In the case of WTVANMEEGKKLTTDPDLILEVLR [I9G], the protein stability index was determined as 2.43. Same read-out and setting: next, WTVANMEEPKKLTTDPDLILEVLR [I9P]: 2.49; WTVANMEEAKKLTTDPDLILEVLR [I9A]: 2.38; WTVANMEEKKKLTTDPDLILEVLR [I9K]: 2.5.

For WTVANMEERKKLTTDPDLILEVLR [I9R], the protein stability index came to 2.5. Still for that read-out and setting: then WTVANMEEEKKLTTDPDLILEVLR [I9E], with 2.75; and WTVANMEETKKLTTDPDLILEVLR [I9T], with 1.71; and WTVANMEEHKKLTTDPDLILEVLR [I9H], with 2.65. Turning to WTVANMEECKKLTTDPDLILEVLR [I9C], the protein stability index came to 2.27. For WTVANMEELKKLTTDPDLILEVLR [I9L], the protein stability index is 2.16. The same measure, in the same setting: then WTHANMEEIKKLTTDPDLILEVLR [V3H], with 2.5. With WTTANMEEIKKLTTDPDLILEVLR [V3T], the protein stability index is 2.18. Same read-out and setting: next, WTSANMEEIKKLTTDPDLILEVLR [V3S]: 2.21; WTNANMEEIKKLTTDPDLILEVLR [V3N]: 2.24.

Consider WTRANMEEIKKLTTDPDLILEVLR [V3R], for which the protein stability index came out at 1.24.

Consider WTDANMEEIKKLTTDPDLILEVLR [V3D], for which the protein stability index amounted to 3.05.

On to WTCANMEEIKKLTTDPDLILEVLR [V3C], for which the protein stability index is 2.5. Consider WTIANMEEIKKLTTDPDLILEVLR [V3I], for which the protein stability index was found to be 2.37.

With WTQANMEEIKKLTTDPDLILEVLR [V3Q], the protein stability index is 2.62. Take WTMANMEEIKKLTTDPDLILEVLR [V3M]: the protein stability index was found to be 2.29. Same read-out and setting: then WTKANMEEIKKLTTDPDLILEVLR [V3K], with 2.19. Take WTLANMEEIKKLTTDPDLILEVLR [V3L]: the protein stability index turned out to be 2.41. Same read-out and setting: next, WTFANMEEIKKLTTDPDLILEVLR [V3F]: 2.32. For the variant WTAANMEEIKKLTTDPDLILEVLR [V3A], the protein stability index is 3.11. Regarding WTPANMEEIKKLTTDPDLILEVLR [V3P], the protein stability index stood at 1.92. On the same count and under the same terms, then WTEANMEEIKKLTTDPDLILEVLR [V3E], with 3.01. The same measure, in the same setting: next, WTYANMEEIKKLTTDPDLILEVLR [V3Y]: 1.96; WFVANMEEIKKLTTDPDLILEVLR [T2F]: 1.94; WWVANMEEIKKLTTDPDLILEVLR [T2W]: 2.11. With WYVANMEEIKKLTTDPDLILEVLR [T2Y], the protein stability index came to 1.05. For the variant WKVANMEEIKKLTTDPDLILEVLR [T2K], the protein stability index is 1.87. With WIVANMEEIKKLTTDPDLILEVLR [T2I], the protein stability index came out at 1.14. With WGVANMEEIKKLTTDPDLILEVLR [T2G], the protein stability index was found to be 2.28. On the same count and under the same terms, then WHVANMEEIKKLTTDPDLILEVLR [T2H], with 2.67; and WDVANMEEIKKLTTDPDLILEVLR [T2D], with 2.12. Still for that read-out and setting: next, WLVANMEEIKKLTTDPDLILEVLR [T2L]: 2.08; WAVANMEEIKKLTTDPDLILEVLR [T2A]: 1.42; WMVANMEEIKKLTTDPDLILEVLR [T2M]: 1.48. For WSVANMEEIKKLTTDPDLILEVLR [T2S], the protein stability index amounted to 2.58. The same measure, in the same setting: next, WQVANMEEIKKLTTDPDLILEVLR [T2Q]: 1.95; WPVANMEEIKKLTTDPDLILEVLR [T2P]: 3.13. Still for that read-out and setting: then WCVANMEEIKKLTTDPDLILEVLR [T2C], with 2.02; and WEVANMEEIKKLTTDPDLILEVLR [T2E], with 2.8; and WNVANMEEIKKLTTDPDLILEVLR [T2N], with 2.

As to WRVANMEEIKKLTTDPDLILEVLR [T2R], the protein stability index was 2.59. Still for that read-out and setting: then WVVANMEEIKKLTTDPDLILEVLR [T2V], with 1.7; and WTVANREEIKKLTTDPDLILEVLR [M6R], with 2.47. As to WTVANWEEIKKLTTDPDLILEVLR [M6W], the protein stability index stood at 1.89. Same read-out and setting: next, WTVANSEEIKKLTTDPDLILEVLR [M6S]: 2.57; WTVANIEEIKKLTTDPDLILEVLR [M6I]: 1.63; WTVANCEEIKKLTTDPDLILEVLR [M6C]: 2.6. On to WTVANEEEIKKLTTDPDLILEVLR [M6E], for which the protein stability index worked out at 2.67. Regarding WTVANFEEIKKLTTDPDLILEVLR [M6F], the protein stability index turned out to be 1.69.

As for WTVANKEEIKKLTTDPDLILEVLR [M6K], the protein stability index was 1.89. With WTVANAEEIKKLTTDPDLILEVLR [M6A], the protein stability index came to 1.33. Same read-out and setting: next, WTVANLEEIKKLTTDPDLILEVLR [M6L]: 2.13; WTVANNEEIKKLTTDPDLILEVLR [M6N]: 2.67; WTVANVEEIKKLTTDPDLILEVLR [M6V]: 1.73. The same measure, in the same setting: next, WTVANDEEIKKLTTDPDLILEVLR [M6D]: 2.79; WTVANHEEIKKLTTDPDLILEVLR [M6H]: 1.79; WTVANPEEIKKLTTDPDLILEVLR [M6P]: 2.03. The same measure, in the same setting: next, WTVANYEEIKKLTTDPDLILEVLR [M6Y]: 1.73.

For the variant WTVANGEEIKKLTTDPDLILEVLR [M6G], the protein stability index amounted to 1.59. Same read-out and setting: then WTVANQEEIKKLTTDPDLILEVLR [M6Q], with 2.25.

Variants of B2 are the subject of the next series. The description is as above. To be noted: c terminus: a fixed tail appended.
For PPEPLSQVSMWDQRWQDHQPLLYI [P23Y], the protein stability index amounted to 2.06.

Regarding PPEPLSQVSMWDQRWQDHQPLLMI [P23M], the protein stability index is 2.08. With PPEPLSQVSMWDQRWQDHQPLLKI [P23K], the protein stability index was found to be 2.62.

Turning to PPEPLSQVSMWDQRWQDHQPLLVI [P23V], the protein stability index is 2.92. Same read-out and setting: next, PPEPLSQVSMWDQRWQDHQPLLRI [P23R]: 2.38. PPEPLSQVSMWDQRWQDHQPLLNI [P23N]: the protein stability index came to 3.23. On the same count and under the same terms, then PPEPLSQVSMWDQRWQDHQPLLWI [P23W], with 1.36.

Regarding PPEPLSQVSMWDQRWQDHQPLLLI [P23L], the protein stability index was 1.99. Same read-out and setting: then PPEPLSQVSMWDQRWQDHQPLLSI [P23S], with 2.05; and PPEPLSQVSMWDQRWQDHQPLLTI [P23T], with 2.77. For PPEPLSQVSMWDQRWQDHQPLLQI [P23Q], the protein stability index was found to be 2.39. Still for that read-out and setting: then PPEPLSQVSMWDQRWQDHQPLLPF [I24F], with 2.72; and PPEPLSQVSMWDQRWQDHQPLLPE [I24E], with 3.26; and PPEPLSQVSMWDQRWQDHQPLLPL [I24L], with 3.26.

As for PPEPLSQVSMWDQRWQDHQPLLPM [I24M], the protein stability index came to 3.24. Regarding PPEPLSQVSMWDQRWQDHQPLLPK [I24K], the protein stability index amounted to 3.92.

Turning to PPEPLSQVSMWDQRWQDHQPLLPD [I24D], the protein stability index was found to be 4.43. Same read-out and setting: next, PPEPLSQVSMWDQRWQDHQPLLPS [I24S]: 3.55; PPEPLSQVSMWDQRWQDHQPLLPN [I24N]: 3.12. Same read-out and setting: then PPEPLSQVSMWDQRWQDHQPLLPV [I24V], with 3.29; and PPEPLSQVSMWDQRWQDHQPLLPR [I24R], with 3.12; and PPEPLSQVSMWDQRWQDHQPLLPW [I24W], with 2.04.

For the variant PPEPLSQVSMWDQRWQDHQPLLPA [I24A], the protein stability index was 3.26. Regarding PPEPLSQVSMWDQRWQDHQPLLPG [I24G], the protein stability index came out at 4.44.

On to PPEPLSQVSMWDQRWQDHQPLLPP [I24P], for which the protein stability index was found to be 3.79.

As to PPEPLSQVSMWDQRWQDHQPLLPH [I24H], the protein stability index turned out to be 3.58. On the same count and under the same terms, next, PPEPLSQVSMWDQRWQDHQPLLPY [I24Y]: 3.54; PPEPLSQVSMWDQRWQDHQPLLPC [I24C]: 2.69; PPEPLSQVSMWDQRWQDHQPLLPQ [I24Q]: 3.93. Still for that read-out and setting: next, PPEPLSQVSMWDQRWQDHQPLLPT [I24T]: 3.62.
